Data taken from US20150005237A1, “PEPTIDIC INHIBITOR OF SIGNAL TRANSMISSION FROM G-ALPHA-S TO G-ALPHA-I-COUPLED RECEPTOR CASCADES” (UNIVERSITÄT INNSBRUCK, priority 2011, published 2015).

Legend:
[1] = target: Gαi of δOR-HEK293 cells (endogenous, receptor-activated); assay: cell-based or functional assay
[2] = target: Gαi3 transiently overexpressed in COS7 cells; assay: cAMP agarose precipitation from COS7 lysates after 15 min forskolin, immunoblot densitometry

sensitivity of the MAPK pathway (SNC80-mediated ERK1/2 phosphorylation) to stimulation by the δOR agonist [1] [fold]	fold enrichment of R:Gαi3 complexes (forskolin pre-treatment against basal conditions) [2] [fold]	Substance
7	–	endogenous PKA regulatory subunits (R; RII/RegII) of δOR-HEK293 cells, cAMP-activated
–	3.8	endogenous PKA regulatory subunits (R/Reg) of COS7 cells, bound to 2AHA-cAMP-coupled agarose beads
